The text below walks through data of patent publication US20250171379A1 (Janssen / Centocor, published 2025).

Assay [1] has as its target T1, human prostate-specific membrane antigen (PSMA) (human, UniProt Q04609 1-750).
T1 construct: whole, on cells; also called PSMA+ C4-2B cells
As to the kind of experiment: flow cytometry on C4-2B cells (PSMA+), AlexaFluor647 anti-human IgG secondary, MFI curve fit; parental in the random azide series. The protocol: (§1) Cell binding of azide-modified antibodies, DOTA-DBCO-azide modified antibodies, and DFO-DBCO-azide modified antibodies was compared to the parental mAbs for the conjugates described in Table 1. Cell lines expressing the mAb target were treated with antibody or conjugate in a range of a concentrations, and binding was measured by flow cytometry. […] Anti-PSMA mAb was evaluated for binding to PSMA+C4-2b cells.
(§2) Flow Cytometry: Cells were detached from flask using enzyme free cell dissociation buffer (Gibco, Waltham, MA) and strained through a 40 μm filter (Falcon). 5×10⁴ cells were seeded per well in a 96-well u-bottom plate. Cells were incubated with conjugated antibody or parental antibody diluted in BSA stain buffer (BD Bioscience, San Jose, CA) for 1 hr at 4° C. Cells were washed twice with stain buffer. […] Cells were washed twice with stain buffer then resuspended in a final volume of 25 μL/well in stain buffer and read on the iQue® Screener flow cytometer (Intellicyt®). […] Live cells were determined by excluding events with high nucleic acid stain. Mean fluorescence intensity (MFI) was determined on live cells and graphed in GraphPad® Prism 7 (GraphPad® Software) as log of antibody concentration vs. MFI. A non-linear regression curve fit was added to data and EC₅₀ values were calculated.

Assay [2] has as its target T1, human prostate-specific membrane …. As to the kind of experiment: flow cytometry on C4-2B cells (PSMA+), AlexaFluor647 anti-human IgG secondary, MFI curve fit; parental in the glycan series. The protocol: as §1, §2
A general note: A flow cytometer gives signals particle by particle.

For assay [3] the target is unchanged. Briefly: flow cytometry on C4-2B cells (PSMA+), AlexaFluor647 anti-human IgG secondary, MFI curve fit; parental in the MTG series. As to the method:
as §1, §2

Assay [4] shares this target. As to the kind of experiment: flow cytometry on C4-2B cells (PSMA+), AlexaFluor647 anti-human IgG secondary, MFI curve fit. The protocol:
as §1
Flow Cytometry: Cells were detached from flask using enzyme free cell dissociation buffer (Gibco, Waltham, MA) and strained through a 40 μm filter (Falcon). 5×10⁴ cells were seeded per well in a 96-well u-bottom plate. Cells were incubated with conjugated antibody or parental antibody diluted in BSA stain buffer (BD Bioscience, San Jose, CA) for 1 hr at 4° C. Cells were washed twice with stain buffer. Cells were then incubated in the dark for 30 min at 4° C. with AlexaFluor647 tagged anti-human IgG secondary antibody (Jackson ImmunoResearch Laboratories). Secondary antibodies were diluted 1:200 in stain buffer containing 3% donkey serum (Rockland Immunochemicals). For the last 10 minutes of the incubation SYTOX® Green Nucleic Acid Stain (ThermoFisher) was added to cells at a final concentration of 30 nM. Cells were washed twice with stain buffer then resuspended in a final volume of 25 μL/well in stain buffer and read on the iQue® Screener flow cytometer (Intellicyt®). ForeCyt® software was used to analyze data. Live cells were determined by excluding events with high nucleic acid stain. Mean fluorescence intensity (MFI) was determined on live cells and graphed in GraphPad® Prism 7 (GraphPad® Software) as log of antibody concentration vs. MFI. A non-linear regression curve fit was added to data and EC₅₀ values were calculated.

T1 sequence (Q04609 whole entry): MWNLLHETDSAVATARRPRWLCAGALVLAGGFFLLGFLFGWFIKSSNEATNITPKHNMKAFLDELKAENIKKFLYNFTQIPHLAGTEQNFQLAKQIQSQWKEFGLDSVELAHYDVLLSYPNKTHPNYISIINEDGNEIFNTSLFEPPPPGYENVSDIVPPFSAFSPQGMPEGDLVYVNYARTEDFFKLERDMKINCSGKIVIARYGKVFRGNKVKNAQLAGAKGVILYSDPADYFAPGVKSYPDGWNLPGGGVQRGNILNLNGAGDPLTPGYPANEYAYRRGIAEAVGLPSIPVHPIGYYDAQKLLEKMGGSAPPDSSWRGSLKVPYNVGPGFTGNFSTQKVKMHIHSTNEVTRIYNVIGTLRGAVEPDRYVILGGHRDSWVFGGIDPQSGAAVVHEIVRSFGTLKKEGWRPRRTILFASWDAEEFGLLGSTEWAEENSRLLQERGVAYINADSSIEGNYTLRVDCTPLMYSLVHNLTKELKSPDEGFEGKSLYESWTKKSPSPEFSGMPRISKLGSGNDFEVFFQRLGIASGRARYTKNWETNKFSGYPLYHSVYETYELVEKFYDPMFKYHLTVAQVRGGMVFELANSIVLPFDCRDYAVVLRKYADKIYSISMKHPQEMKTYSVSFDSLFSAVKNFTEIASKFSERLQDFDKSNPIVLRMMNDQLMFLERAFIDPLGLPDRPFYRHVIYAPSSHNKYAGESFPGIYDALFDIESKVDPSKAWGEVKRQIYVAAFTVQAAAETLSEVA

B1: anti-PSMA mAb PSMB127 (antibody, human IgG4 S228P, kappa, F234A L235A, V domains shown)
VH: EVQLLESGGGLVQPGGSLRLSCAASGFTFKSDAMHWVRQAPGKGLEWVSEISGSGGYTNYADSVKGRFTISRDNSKNTLYLQMNSLRAEDTAVYYCARDSYDSSLYVGDYFDYWGQGTLVTVSS
VL: EIVLTQSPATLSLSPGERATLSCRASQSVSSYLAWYQQKPGQAPRLLIYDASNRATGIPARFSGSGSGTDFTLTISSLEPEDFAVYYCQQRSNWPLTFGQGTKVEIKR
notes: Parental, unmodified human IgG4 antibody
As usually defined, the EC50 is the concentration that produces a half-maximal response. For the molecule B1, the EC50 came out at 5.5 nM in assay [1], 0.7 nM in assay [2] and 4.1 nM in assay [3].

B2: anti-PSMA mAb-azide (random azide) (antibody, human IgG4 S228P, kappa, F234A L235A, V domains shown)
VH: B1 VH
VL: B1 VL
modifications: random conjugation of NHS-PEG4-azide to amines of the antibody, CAR 2.4
notes: Human IgG4; sites of modification random, not located; also called anti-PSMA mAb (random azide) mAb-azide
For B2, the 50% effective concentration (EC50) in assay [4] was determined as 4.7 nM.

B3: anti-PSMA mAb-DOTA (site specific MTG azide clicked with DOTA-GA-DBCO) (antibody, human IgG4 S228P, kappa, F234A L235A, V domains shown)
VH: B1 VH
VL: B1 VL
modifications: deglycosylated with PNGase F; 3-azido propylamine at Gln295 by microbial transglutaminase, clicked with unchelated DOTA-GA-DBCO; CAR 2
notes: Human IgG4; also called anti-PSMA mAb (MTG) mAb-DOTA
B3 gave a half-maximal effective concentration (EC50) in assay [4] of 6.7 nM.

B4: anti-PSMA mAb-DFO (random azide clicked with DFO-DBCO) (antibody, human IgG4 S228P, kappa, F234A L235A, V domains shown)
VH: B1 VH
VL: B1 VL
modifications: random NHS-PEG4-azide on amines, clicked with unchelated DFO-DBCO, CAR 2.4
notes: Human IgG4; also called anti-PSMA mAb (random azide) mAb-DFO
For the molecule B4, the EC50 in assay [4] was determined as 4.6 nM.

B5: anti-PSMA mAb-DOTA (site specific glycan azide clicked with DOTA-GA-DBCO) (antibody, human IgG4 S228P, kappa, F234A L235A, V domains shown)
VH: B1 VH
VL: B1 VL
modifications: Fc glycan trimmed to the innermost GlcNAc, GalNAz azido sugar added, clicked with unchelated DOTA-GA-DBCO; CAR 2
notes: Human IgG4; also called anti-PSMA mAb (glycan) mAb-DOTA
With B5, the midpoint of the response in assay [4], the EC50, lay at 0.7 nM.

B6: anti-PSMA mAb, deglycosylated (MTG samples) (antibody, human IgG4 S228P, kappa, F234A L235A, V domains shown)
VH: B1 VH
VL: B1 VL
modifications: deglycosylated with Rapid PNGase F (all N-glycans released)
notes: Human IgG4; also called anti-PSMA mAb (MTG) Deglycosylated
B6 registered a concentration for a half-maximal effect (EC50) in assay [4] of 3.4 nM.

B7: anti-PSMA mAb-DFO (site specific MTG azide clicked with DFO-DBCO) (antibody, human IgG4 S228P, kappa, F234A L235A, V domains shown)
VH: B1 VH
VL: B1 VL
modifications: deglycosylated with PNGase F; 3-azido propylamine at Gln295 by microbial transglutaminase, clicked with unchelated DFO-DBCO; CAR 2
notes: Human IgG4; also called anti-PSMA mAb (MTG) mAb-DFO
Molecule B7 yielded a concentration for a half-maximal effect (EC50) in assay [4] of 4.5 nM.

B8: anti-PSMA mAb-azide (site specific glycan) (antibody, human IgG4 S228P, kappa, F234A L235A, V domains shown)
VH: B1 VH
VL: B1 VL
modifications: Fc glycan trimmed with GlycINATOR to the innermost GlcNAc, GalNAz azido sugar added with GalT; CAR exactly 2
notes: Human IgG4; also called anti-PSMA mAb (glycan) mAb-azide
Turning to B8, in assay [4], the half-maximal effective concentration (EC50) worked out at 0.5 nM.

B9: anti-PSMA mAb-DOTA (random azide clicked with DOTA-GA-DBCO) (antibody, human IgG4 S228P, kappa, F234A L235A, V domains shown)
VH: B1 VH
VL: B1 VL
modifications: random NHS-PEG4-azide on amines, clicked with unchelated DOTA-GA-DBCO, CAR 2.4
notes: Human IgG4; also called anti-PSMA mAb (random azide) mAb-DOTA
Regarding B9, in assay [4], the 50% effective concentration (EC50) was found to be 5.4 nM.

B10: anti-PSMA mAb-azide (site specific MTG) (antibody, human IgG4 S228P, kappa, F234A L235A, V domains shown)
VH: B1 VH
VL: B1 VL
modifications: deglycosylated with PNGase F; 3-azido propylamine at Gln295 by microbial transglutaminase; CAR 2
notes: Human IgG4; also called anti-PSMA mAb (MTG) mAb-azide
B10 came in with a half-maximal effective concentration (EC50) in assay [4] of 5 nM.
